Results published in the nanobody polyreactivity screen of Harvey et al. (2022).

Assay: yeast display, Sf9 membrane polyspecificity reagent, FACS + sequencing; frameworks hold sequencing errors
Summary of the method: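 Synthetic nanobody libraries on Saccharomyces cerevisiae BJ5465 were galactose-induced for 36–48 hours, stained 1 hour at 4 °C with 10% biotinylated, detergent-solubilized Sf9 membrane reagent and enriched on streptavidin microbeads. FACS then separated cells into low and high (top ~1%) gates by anti-HA (expression) and streptavidin (reagent binding) fluorescence. Genes were colony-PCR amplified, MiSeq 2 × 250 sequenced and CDR-length filtered. A clone's polyreactivity label is that of its gate of origin.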

| Sequence | polyreactivity (PSR sort gate) |
| --- | --- |
| QVQLVDSGGGLVQAGGSLRLSCAASGRTFGAYAMGWYRQAPGKERELVATITVSGGSTYYADSVKGRFTISRDNAKNTVYLQMNSLKPEDSAVYYCAAAYDWWQFYSWTIAYDYWGQGTQVTVSS | low polyreactivity |
| QVQLVDSGGGLVQAGGSLRLSCAASGRTFLFNSMGWYRQATGKQRELVAGITWSSGSTYYADSVKGRITISRDNAKNTVYLQMNSLKPEDTAVYYCAAYHFHDNDYWGQGTQVTVSS | low polyreactivity |
| QVQLVDSGGGLVQAGGSLRLSCAASGRTFPSYGMGWYRQAPGKERELVAPITGGGSTYYADSVKGRFTISRDNAKNTVYLQINSLKPEDTAVYYCAKRPYYNRHYHYRSKYDYWGLGTQVTVSS | high polyreactivity |
| QVQLVDSGGGLVQAGGSLRLSCAASGRTFRLNDMGWYRQAPGKDRELVAAITRSGGSTYYADSVKGRFTISRDNAKNTVYFQMNSLKPEDTAVYYCNAVRSRYYDDYDYWGQGTQVTVSS | high polyreactivity |
| QVQLVDSGGGLVQAGGSLRLSCAASGRTFRSYAMGWYRQAPGKERELVAAITWNGGGTYYADSVKGRFTMSRDNAKNTVYLQMNSLKPEETAVYYCAGRGRTDSYWRFYHWGQGTQVTVSS | high polyreactivity |
| QVQLVDSGGGLVQAGGSLRLSCAASGRTFRTNAMGWYRQAPGKERELVAAISSNGGTTYYADSVKGRFTISRDNAKNTVYLQMNSLKPEDTAVYYCNIESQYLWPEFDYWGQGTQVTVSS | low polyreactivity |
| QVQLVDSGGGLVQAGGSLRLSCAASGRTFTWYAMGWYRQAPGKERELVSAITNGGRTYADSVKGRFTISRDNAKNTVYLQMNSLKPEDTAVYYCAKVQYRGYLPHQRGRERDYDYWGQGTQVTVSS | low polyreactivity |
| QVQLVDSGGGLVQAGGSLRLSCAASGRTIATYTQGWYRHAPGKERELVAAISKSGGSTYYADSVKGRFTISRDNAKNTVYLQMNSLKTEDTAVYYCAKRRSGNVRKYDYWGQGTQVTVSS | high polyreactivity |
| QVQLVDSGGGLVQAGGSLRLSCAASGRTIYLYAMACYRQAPGKERELVAAISERGGRTYYADSVKGRFTISRDNAKNTVYLQMNSLKPEDTAVYYCAAVKGYNYGYWGQGTQVTVSS | high polyreactivity |
| QVQLVDSGGGLVQAGGSLRLSCAASGSIFNVYAMGWYRQAPGKERELVAAITGSGGRTYYADSVKGRFTISRDNAKNTVYLQMNSLKPEDTAVYYCAATTRPGYRYEGDYWGQGTQVTVSS | low polyreactivity |
| QVQLVDSGGGLVQAGGSLRLSCAASGSIFPGNPMGWYRQAPGKERELVAVIDFSGASTYYADSVKGRFTISRDNAKNTVYFQMNSLKPEDTADYWGQCTQVTVSS | low polyreactivity |
| QVQLVDSGGGLVQAGGSLRLSCAASGSIFSKYAMGGYRQAPGKERELVAAISGSGVSTYYADSVKGRFTISRDNAKNTVFLQMNSLKTEDTAVYYCNARGSFHQPRYGYWGQGTQVTVSS | high polyreactivity |
| QVQLVDSGGGLVQAGGSLRLSCAASGSIFSVYSMGGNRQATGKERELVASISRTGTTNYADSVKGSFTISRDNAKNTVYLQMNSLKPEDTAVFYCATDFTDWDVFLIKEFGYDYWGQGTQVTVSS | low polyreactivity |
| QVQLVDSGGGLVQAGGSLRLSCAASGSIFVGNAMGWYRQAPGKERELVAAITSSGGRTYYADSVKGRFTISRDNAKYTVYLQMNSLKAEDTSVYYCNTSRTRRFSLWDYDYWGQGTQVSVSS | high polyreactivity |
| QVQLVDSGGGLVQAGGSLRLSCAASGSIFVKYAMGCYRQAPGKERELVAAISGSGGSTYYADSVKGRFTISRDNAKNTVSLQMNSLKPEDTAVYYCAADDYFYSGRYGFEFWGQGTQVTVSS | low polyreactivity |
| QVQLVDSGGGLVQAGGSLRLSCAASGSIFYWYAMGWYRQAPGKERELVAAISWSGGSTFYADSVKGRFTISRDNAKNTVYLQMNSLKPEDTAVYYCAAETPYDYDYWGQGTQVTVSS | high polyreactivity |
| QVQLVDSGGGLVQAGGSLRLSCAASGSIFYYNAMGWYRPAPGKERELVAAITSSGGSTYYADSVKGRFTISRDNAKNTVYLQMNSLKPEDTAVYYCYAGATALRYRPYSSAYDYWGQGTQVTVSS | low polyreactivity |
| QVQLVDSGGGLVQAGGSLRLSCAASGSILVYYAMGWYRQAPGKERELVAAISSGGSTNYADSVKGRFTISRDNANNTVYLKINSLKPEDTAVYYCAKPDRTGWLEGDYWGQGTQVSVSS | low polyreactivity |
| QVQLVDSGGGLVQAGGSLRLSCAASGSNFDDYAMGWYRQAPGKERELVAAISSSGTSTYYADSVKGRFTISRDNAKNTVYLQMNSLKPEDTAVYYCAAKKKYHYVASYKRFEYWGQGTQVTVSS | low polyreactivity |
| QVQLVDSGGGLVQAGGSLRLSCAASGSNFGTYAMGWYRQAPGKERELVAAITTNGVSTYYADSVKGRFTISRDNAKNTVYLQMNSLKPEDTAVYYCAAPIQAWVRHLADIRYDYWGQGTQVTVSS | low polyreactivity |
| QVQLVDSGGGLVQAGGSLRLSCAASGSTFDAYAMGWYRQAPGKERELVAGISSGGSYEYAESVKGRFTISRDNAKNTVYVQMNSLKPEDTAVYYCAADSRQSDYYYQPTKFDYWGQGTQVTVSS | low polyreactivity |
| QVQLVDSGGGLVQAGGSLRLSCAASGSTFESYAMGWDRQAPGKERELVAAISTNGGRTRYADSVKGRFTISRDNAKNTVYLQMNSLKPVDTAVYYCATYVRGVYASSGYDYWGQGTQVTVSS | high polyreactivity |
| QVQLVDSGGGLVQAGGSLRLSCAASGSTFGPYAMGWYRQAPGKERELVAAISGSGGTTYYADSVKGRFTMSRDNSKNTVYLQMNSLKPEDTAVYDCAAYPRWTYWGYVERYYWGQGTQVTVSS | high polyreactivity |
| QVQLVDSGGGLVQAGGSLRLSCAASGSTFGSYAMGWYRQAPGKERELVAAISWNGGRTYYADSVKGRFTISRDNAKNTVYLQMNSLKPEDTAVYYCAKVVKYQSGGGLDYWGQGTQVTVSS | high polyreactivity |
| QVQLVDSGGGLVQAGGSLRLSCAASGSTFKYYAMGWYRQAPGKERELVAAISGRGGRTYYADSVKGRFTISRDHAKNTVYLQMNSLKPEDTAVYYCNAPFLGAHHYGYEYWGQGTQVTVSS | high polyreactivity |
| QVQLVDSGGGLVQAGGSLRLSCAASGSTFNPYAMGWYRQAPGKERELVAGISWSGGSTYYADSVKGRFSISRDNAKNTVYLQMNSLKPEDTAVYYCAVVVYWSVIYDFWGQGTQVTVST | low polyreactivity |
| QVQLVDSGGGLVQAGGSLRLSCAASGSTFRYNAMGWYRQAPGKERELVAAIDKRGDSTYADSVKGRFTISRDNAKNTVYLQLNSLKPEDTAVYYCAADSDSKYNYGFLWDTYEYWGQGTQVTVSS | low polyreactivity |
| QVQLVDSGGGLVQAGGSLRLSCAASGSTFRYNAMGWYRQAPGKERELVAAIDKRGDSTYADSVKGRFTISRDNAKNTVYLQMNSLKPEDTAVYYCAADSDSKYNYGFLWDTYEYWGQGTQVTVSS | low polyreactivity |
| QVQLVDSGGGLVQAGGSLRLSCAASGSTFVQYAMGWYRPAPGKERELVAAISTGGSTNYADSVKGRFTISRDNAKNTVYLEMNSLKPEDTAVYYCNVAVWTIVQSLYPYDYWGQGTQVTVSS | low polyreactivity |
| QVQLVDSGGGLVQAGGSLRLSCAASGSTFWYNAMGWYRQAPGKERELVAANSISDGNTYYADSVKGRFTISRDNAKNTVFLQMYSLKPEDTAVYYCNAGYWYDGPDYITEYDYWGQGTQVTVSS | low polyreactivity |
